Test results reported in patent publication US20150203577A1 (Chugai, published 2015).

Key:
mouse FcγRIII [1] = molecular target: T1, mouse FcγRIII (mouse, UniProt P08508 31-215); assay: SPR (Biacore T200); KD of H237-MB630/MRAL-k0 / KD of variant
T1 construct: Extracellular domain with C-terminal His tag; also called mFcγRIII; mFcgRIII
T1 chain: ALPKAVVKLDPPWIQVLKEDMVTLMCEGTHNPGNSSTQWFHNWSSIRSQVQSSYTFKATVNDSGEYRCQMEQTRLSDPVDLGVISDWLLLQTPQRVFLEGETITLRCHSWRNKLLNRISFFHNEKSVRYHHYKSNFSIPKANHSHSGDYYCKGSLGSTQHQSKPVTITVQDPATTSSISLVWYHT
Description: (§1) The antibody H chain variable region used was the variable region H237 (SEQ ID NO: 1) of the H chain VH3-IgG1 of the anti-IL-6 receptor antibody Fv4-IgG1 described in WO2009/125825. The antibody L chain commonly used was the L chain MRAL-k0 (SEQ ID NO: 2) of the anti-IL-6 receptor antibody tocilizumab. […] These variants were expressed and purified by the method of Reference Example 1 and evaluated for their binding to mFcγRII and mFcγRIII by the method of Reference Example 2 using Biacore T200.
(§2) Each altered antibody was analyzed for its interaction with each Fcγ receptor prepared above using Biacore T100 (GE Healthcare Japan Corp.), Biacore T200 (GE Healthcare Japan Corp.), Biacore A100, or Biacore 4000. The running buffer used was HBS-EP+ (GE Healthcare Japan Corp.). The assay temperature was set to 25° C. The sensor chips used were chips prepared by immobilizing Protein L (ACTIGEN or BioVision) onto Series S Sensor Chip CM5 (GE Healthcare Japan Corp.) or Series S Sensor Chip CM4 (GE Healthcare Japan Corp.) by the amine coupling method.
(§3) In order to calculate the KD value of each altered antibody for FcγR, kinetic analysis was conducted according to the following method: first, the antibody of interest was captured onto any of these chips and allowed to interact with mFcγR diluted with a running buffer. For the obtained sensorgram, the assay results were globally fit into the 1:1 Langmuir binding model using Biacore Evaluation Software to calculate an association rate constant ka (L/mol/s) and a dissociation rate constant kd (1/s). From these values, the dissociation constant KD (mol/L) was calculated.

mouse FcγRII [2] = molecular target: T2, mouse FcγRII (mouse, UniProt P08101 30-210); assay: as above
T2 construct: Extracellular domain with C-terminal His tag; also called mFcγRII; mFcgRII
T2 sequence: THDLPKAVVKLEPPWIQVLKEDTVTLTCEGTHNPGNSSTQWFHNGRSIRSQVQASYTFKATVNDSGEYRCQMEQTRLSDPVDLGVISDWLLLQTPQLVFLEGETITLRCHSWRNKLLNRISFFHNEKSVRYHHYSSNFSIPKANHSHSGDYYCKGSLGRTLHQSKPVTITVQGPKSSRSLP
Description: as §1, §2, §3

mouse FcγRIII [3] = molecular target: T1, mouse FcγRIII; assay: SPR (Biacore T200); KD of H237-mIgG1/MRAL-k0 / KD of variant
Description: as §1, §2

mouse FcγRII [4] = molecular target: T2, mouse FcγRII; assay: as above
Description: as §1, §2

B1: MB753 (antibody, mouse IgG1, kappa)
heavy: QVQLQESGPGLVKPSETLSLTCAVSGHSISHDHAWSWVRQPPGEGLEWIGFISYSGITNYNPSLQGRVTISRDNSKNTLYLQMNSLRAEDTAVYYCARSLARTTAMDYWGEGTLVTVSSAKTTPPSVYPLAPGSAAQTNSMVTLGCLVKGYFPEPVTVTWNSGSLSSGVHTFPAVLQSDLYTLSSSVTVPSSTWPSETVTCNVAHPASSTKVDKKIVPRDCGCKPCICEPNEVELVFIFPPKPKDVLTITLTPKVTCVVVDISKDDPEVQFSWFVDDVEVHTAQTQPREEQFNMTFRSVSELPIMHQDWLNGKEFKCRVNSAAFPAPIEKTISKTKGRPKAPQVYTIPPPKEQMAKDKVSLTCMITDFFPEDITVEWQWNGQPAENYKNTQPIMDTDGSYFVYSKLNVQKSNWEAGNTFTCSVLHEGLHNHHTEKSLSHSPGK
light: not shown
notes: CH name; VH H237 + CH, L chain MRAL-k0; copies: 2 + 2
Relative mFcγRIII-binding activity (MB630 = 1) (mouse FcγRIII [1]): 0.34 fold | Relative mFcγRII-binding activity (MB630 = 1) (mouse FcγRII [2]): 0.34 fold | relative mFcγRIII-binding activity (mIgG1 = 1) (mouse FcγRIII [3]): 0.07 fold | relative mFcγRII-binding activity (mIgG1 = 1) (mouse FcγRII [4]): 5.7 fold

B2: MB757 (antibody, mouse IgG1, kappa)
heavy: QVQLQESGPGLVKPSETLSLTCAVSGHSISHDHAWSWVRQPPGEGLEWIGFISYSGITNYNPSLQGRVTISRDNSKNTLYLQMNSLRAEDTAVYYCARSLARTTAMDYWGEGTLVTVSSAKTTPPSVYPLAPGSAAQTNSMVTLGCLVKGYFPEPVTVTWNSGSLSSGVHTFPAVLQSDLYTLSSSVTVPSSTWPSETVTCNVAHPASSTKVDKKIVPRDCGCKPCICEPNEVELVFIFPPKPKDVLTITLTPKVTCVVVDISKDDPEVQFSWFVDDVEVHTAQTQPREEQFNMTFRSVSELPIMHQDWLNGKEFKCRVDSAAFPAPIEKTISKTKGRPKAPQVYTIPPPKEQMAKDKVSLTCMITDFFPEDITVEWQWNGQPAENYKNTQPIMDTDGSYFVYSKLNVQKSNWEAGNTFTCSVLHEGLHNHHTEKSLSHSPGK
light: not shown
notes: as for B1
Relative mFcγRIII-binding activity (MB630 = 1) (mouse FcγRIII [1]): 0.45 fold | Relative mFcγRII-binding activity (MB630 = 1) (mouse FcγRII [2]): 0.46 fold | relative mFcγRIII-binding activity (mIgG1 = 1) (mouse FcγRIII [3]): 0.09 fold | relative mFcγRII-binding activity (mIgG1 = 1) (mouse FcγRII [4]): 7.6 fold

B3: MB758 (antibody, mouse IgG1, kappa)
heavy: QVQLQESGPGLVKPSETLSLTCAVSGHSISHDHAWSWVRQPPGEGLEWIGFISYSGITNYNPSLQGRVTISRDNSKNTLYLQMNSLRAEDTAVYYCARSLARTTAMDYWGEGTLVTVSSAKTTPPSVYPLAPGSAAQTNSMVTLGCLVKGYFPEPVTVTWNSGSLSSGVHTFPAVLQSDLYTLSSSVTVPSSTWPSETVTCNVAHPASSTKVDKKIVPRDCGCKPCICEPNEVELVFIFPPKPKDVLTITLTPKVTCVVVDISKDDPEVQFSWFVDDVEVHTAQTQPREEQFNMTFRSVSELPIMHQDWLNGKEFKCRVNSAAFPAPIERTISKTKGRPKAPQVYTIPPPKEQMAKDKVSLTCMITDFFPEDITVEWQWNGQPAENYKNTQPIMDTDGSYFVYSKLNVQKSNWEAGNTFTCSVLHEGLHNHHTEKSLSHSPGK
light: not shown
notes: as for B1
Relative mFcγRIII-binding activity (MB630 = 1) (mouse FcγRIII [1]): 0.69 fold | Relative mFcγRII-binding activity (MB630 = 1) (mouse FcγRII [2]): 0.59 fold | relative mFcγRIII-binding activity (mIgG1 = 1) (mouse FcγRIII [3]): 0.13 fold | relative mFcγRII-binding activity (mIgG1 = 1) (mouse FcγRII [4]): 9.8 fold

B4: MB755 (antibody, mouse IgG1, kappa)
heavy: QVQLQESGPGLVKPSETLSLTCAVSGHSISHDHAWSWVRQPPGEGLEWIGFISYSGITNYNPSLQGRVTISRDNSKNTLYLQMNSLRAEDTAVYYCARSLARTTAMDYWGEGTLVTVSSAKTTPPSVYPLAPGSAAQTNSMVTLGCLVKGYFPEPVTVTWNSGSLSSGVHTFPAVLQSDLYTLSSSVTVPSSTWPSETVTCNVAHPASSTKVDKKIVPRDCGCKPCICEPNEVELVFIFPPKPKDVLTITLTPKVTCVVVDISKDDPEVQFSWFVDDVEVHTAQTQPREEQFNLTFRSVSELPIMHQDWLNGKEFKCRVDSAAFPAPIEKTISKTKGRPKAPQVYTIPPPKEQMAKDKVSLTCMITDFFPEDITVEWQWNGQPAENYKNTQPIMDTDGSYFVYSKLNVQKSNWEAGNTFTCSVLHEGLHNHHTEKSLSHSPGK
light: not shown
notes: as for B1
Relative mFcγRIII-binding activity (MB630 = 1) (mouse FcγRIII [1]): 0.58 fold | Relative mFcγRII-binding activity (MB630 = 1) (mouse FcγRII [2]): 0.45 fold | relative mFcγRIII-binding activity (mIgG1 = 1) (mouse FcγRIII [3]): 0.11 fold | relative mFcγRII-binding activity (mIgG1 = 1) (mouse FcγRII [4]): 7.6 fold

B5: MB759 (antibody, mouse IgG1, kappa)
heavy: QVQLQESGPGLVKPSETLSLTCAVSGHSISHDHAWSWVRQPPGEGLEWIGFISYSGITNYNPSLQGRVTISRDNSKNTLYLQMNSLRAEDTAVYYCARSLARTTAMDYWGEGTLVTVSSAKTTPPSVYPLAPGSAAQTNSMVTLGCLVKGYFPEPVTVTWNSGSLSSGVHTFPAVLQSDLYTLSSSVTVPSSTWPSETVTCNVAHPASSTKVDKKIVPRDCGCKPCICEPNEVELVFIFPPKPKDVLTITLTPKVTCVVVDISKDDPEVQFSWFVDDVEVHTAQTQPREEQFNSTFRSVSELPIMHQDWLNGKEFKCRVDSAAFPAPIERTISKTKGRPKAPQVYTIPPPKEQMAKDKVSLTCMITDFFPEDITVEWQWNGQPAENYKNTQPIMDTDGSYFVYSKLNVQKSNWEAGNTFTCSVLHEGLHNHHTEKSLSHSPGK
light: not shown
notes: as for B1
Relative mFcγRIII-binding activity (MB630 = 1) (mouse FcγRIII [1]): 2.25 fold | Relative mFcγRII-binding activity (MB630 = 1) (mouse FcγRII [2]): 2.03 fold | relative mFcγRIII-binding activity (mIgG1 = 1) (mouse FcγRIII [3]): 0.44 fold | relative mFcγRII-binding activity (mIgG1 = 1) (mouse FcγRII [4]): 33.8 fold

B6: MB760 (antibody, mouse IgG1, kappa)
heavy: QVQLQESGPGLVKPSETLSLTCAVSGHSISHDHAWSWVRQPPGEGLEWIGFISYSGITNYNPSLQGRVTISRDNSKNTLYLQMNSLRAEDTAVYYCARSLARTTAMDYWGEGTLVTVSSAKTTPPSVYPLAPGSAAQTNSMVTLGCLVKGYFPEPVTVTWNSGSLSSGVHTFPAVLQSDLYTLSSSVTVPSSTWPSETVTCNVAHPASSTKVDKKIVPRDCGCKPCICEPNEVELVFIFPPKPKDVLTITLTPKVTCVVVDISKDDPEVQFSWFVDDVEVHTAQTQPREEQFNLTFRSVSELPIMHQDWLNGKEFKCRVDSAAFPAPIERTISKTKGRPKAPQVYTIPPPKEQMAKDKVSLTCMITDFFPEDITVEWQWNGQPAENYKNTQPIMDTDGSYFVYSKLNVQKSNWEAGNTFTCSVLHEGLHNHHTEKSLSHSPGK
light: not shown
notes: as for B1
Relative mFcγRIII-binding activity (MB630 = 1) (mouse FcγRIII [1]): 1.42 fold | Relative mFcγRII-binding activity (MB630 = 1) (mouse FcγRII [2]): 0.85 fold | relative mFcγRIII-binding activity (mIgG1 = 1) (mouse FcγRIII [3]): 0.28 fold | relative mFcγRII-binding activity (mIgG1 = 1) (mouse FcγRII [4]): 14.1 fold

B7: MB756 (antibody, mouse IgG1, kappa)
heavy: QVQLQESGPGLVKPSETLSLTCAVSGHSISHDHAWSWVRQPPGEGLEWIGFISYSGITNYNPSLQGRVTISRDNSKNTLYLQMNSLRAEDTAVYYCARSLARTTAMDYWGEGTLVTVSSAKTTPPSVYPLAPGSAAQTNSMVTLGCLVKGYFPEPVTVTWNSGSLSSGVHTFPAVLQSDLYTLSSSVTVPSSTWPSETVTCNVAHPASSTKVDKKIVPRDCGCKPCICEPNEVELVFIFPPKPKDVLTITLTPKVTCVVVDISKDDPEVQFSWFVDDVEVHTAQTQPREEQFNLTFRSVSELPIMHQDWLNGKEFKCRVNSAAFPAPIERTISKTKGRPKAPQVYTIPPPKEQMAKDKVSLTCMITDFFPEDITVEWQWNGQPAENYKNTQPIMDTDGSYFVYSKLNVQKSNWEAGNTFTCSVLHEGLHNHHTEKSLSHSPGK
light: not shown
notes: as for B1
Relative mFcγRIII-binding activity (MB630 = 1) (mouse FcγRIII [1]): 1.09 fold | Relative mFcγRII-binding activity (MB630 = 1) (mouse FcγRII [2]): 0.64 fold | relative mFcγRIII-binding activity (mIgG1 = 1) (mouse FcγRIII [3]): 0.21 fold | relative mFcγRII-binding activity (mIgG1 = 1) (mouse FcγRII [4]): 10.6 fold

B8: MB754 (antibody, mouse IgG1, kappa)
heavy: QVQLQESGPGLVKPSETLSLTCAVSGHSISHDHAWSWVRQPPGEGLEWIGFISYSGITNYNPSLQGRVTISRDNSKNTLYLQMNSLRAEDTAVYYCARSLARTTAMDYWGEGTLVTVSSAKTTPPSVYPLAPGSAAQTNSMVTLGCLVKGYFPEPVTVTWNSGSLSSGVHTFPAVLQSDLYTLSSSVTVPSSTWPSETVTCNVAHPASSTKVDKKIVPRDCGCKPCICEPNEVELVFIFPPKPKDVLTITLTPKVTCVVVDISKDDPEVQFSWFVDDVEVHTAQTQPREEQFNSTFRSVSELPIMHQDWLNGKEFKCRVDSAAFPAPIEKTISKTKGRPKAPQVYTIPPPKEQMAKDKVSLTCMITDFFPEDITVEWQWNGQPAENYKNTQPIMDTDGSYFVYSKLNVQKSNWEAGNTFTCSVLHEGLHNHHTEKSLSHSPGK
light: not shown
notes: as for B1
Relative mFcγRIII-binding activity (MB630 = 1) (mouse FcγRIII [1]): 1.28 fold | Relative mFcγRII-binding activity (MB630 = 1) (mouse FcγRII [2]): 1.26 fold | relative mFcγRIII-binding activity (mIgG1 = 1) (mouse FcγRIII [3]): 0.25 fold | relative mFcγRII-binding activity (mIgG1 = 1) (mouse FcγRII [4]): 21 fold
